Source: publication PMC3320602

Target: HIV-1 JR-FL envelope glycoprotein (gp120 and gp41) on GFP-labelled Env-pseudotyped particles (HIV-1 isolate JR-FL)

## tetrameric CD4-IgG2 molecule (PRO 542) (from UniProt P01730 26-396; P01730 26-396) (Fc fusion)
  IC50 of inhibition of JR-FL infection of TZM-bl cells (luciferase), cell-cell transmission from infected PBMC against cell-free virus; the pair blocked is m1+m3: 40 fold
